Laboratory results taken from publication PMC6554060 (Journal of molecular biology, 2019).

Biological target: His6-tagged WT-αSyn (human, UniProt P37840 1-140)
Experiment: BLI

B1: E234G/H363A-HYPE (enzyme)
chain: GKLEARAALNQALEMKRQGKREKAQKLFMHALKMDPDFVDALTEFGIFSEEDKDIIQADYLYTRALTISPYHEKALVNRDRTLPLVEEIDQRYFSIIDSKVKKVMSIPKGNSALRRVMEETYYHHIYHTVAIGGNTLTLSEIRHILETRYAVPGKSLEEQNEVIGMHAAMKYINTTLVSRIGSVTISDVLEIHRRVLGYVDPVEAGRFRTTQVLVGHHIPPHPQDVEKQMQEFVQWLNSEEAMNLHPVEFAALAHYKLVYIAPFIDGNGRTSRLLMNLILMQAGYPPITIRKEQRSDYYHVLEAANEGDVRPFIRFIAKCTETTLDTLLFATTEYSVALPEAQPNHSGFKETLPVKP
B1 was tested. Which Kd did it give?
The Kd was 15.3 µM.
